The RNAGym collection of RNA variant scans (doi:10.1073/pnas.2313332121)

B1: TPR t1 (parent)
chain: GACCAAUCUGCCCUCAGAGCUCGAGAACAUCUUCGGAUGCAGAGGAGGCAGGCUUCGGUGGCGCGAUAGCGCCAACGUCCUCAACCUCCAAUGCAUCCCACCACAUGAUGAUGCCUGAAGAGCCUUGGUUUUUUG

Variants of: B1
Experiment: polymerase ribozyme fitness, log enrichment relative to wild type (log ratio); higher = more active; in vitro selection for triplet polymerase activity
Outline: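 Mutant libraries of each subunit of a heterodimeric triplet polymerase ribozyme were built by PCR and transcribed. Each library went through one round of in vitro selection in triplicate: annealing with biotinylated primer, partner subunit and triplets, frozen incubation at −7 °C, gel excision of extended constructs, streptavidin-bead capture and RT-PCR. Input and output libraries were Illumina-sequenced; only genotypes with ≥10 input reads and ≥1 read per output were kept. Fitness is log2(genotype enrichment/wild-type enrichment), using inverse-variance-weighted replicate averages.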

Row | Variant | polymerase ribozyme fitness (log ratio)
1 | C3U A29G A46U G61A A66U A83G C86A C101U U132A | -4.12
2 | C3G C4A C40U C53A C70U C86A C98U U112A | -5.43
3 | C3G U7A G63C A95C | -2.41
4 | C3G C4G U7C C53A C123U | 1.4
5 | C3G C62U G120C | -0.751
6 | C3U A68G | -3.05
7 | C3U C53U | -1.24
8 | C3U C123U | 0.881
9 | C3A U9A G61C | -2.34
10 | C3G G42U C99U C115G A121G | -5.96
11 | C3G A6U | -4.02
12 | C3A C62U | -1.99
13 | C3A C62G | -2.38
14 | C3A U33A C86A U112G | -6.24
15 | C3G C8G U32C C115G | -2.01
16 | C3U C13A G39U C53A C56U G120U | -0.266
17 | C3U C70U G113C | -3.44
18 | C3U C62A C115A U125G | -1.86
19 | C3A A27C G45A C53A C123U | -4.25
20 | C3G A111C | -1.69
21 | C3U G17U G63U C73U | -4.23

Row | Variant | polymerase ribozyme fitness (log ratio)
22 | C3U A74U U106G G110A A119G | -4.14
23 | C3G G63C | -2.64
24 | C3G G63U | -2.85
25 | C3U A6U G45U C72G C79G C114A | -5.66
26 | A2U U129A | 0.107
27 | C3A A37U C82U U112C | -0.239
28 | C3U C28A C72G U112A | -3.66
29 | C3U C12A C13A C49U C72G C99U U116C | -6.31
30 | C3A G127U | -0.622
31 | C3A C8G A74U A95C G117A G128U | -0.293
32 | C3A C53A G57A C70A A95C G117C | -5.27
33 | C3A A16C U78G C79U | -4.42
34 | C3A A50U C80U G120U | -4.64
35 | C3A C73G | -1.48
36 | C3U A95G | 0.0555
37 | C3G C12A C114A G128C | -3.31
38 | C3G A119G | -0.446
39 | C3U C13U G44U U55C G63A A108U U112G G113C | -6.03
40 | C3U C49G | -1.16
41 | C3U C49U | -1.18
42 | C3U C49A | 0.209

Row | Variant | polymerase ribozyme fitness (log ratio)
43 | C3U C13U C104A | -1.31
44 | C3A G110C | -5.4
45 | C3U C11U U54G | -1.05
46 | C3U A5C C15A G69C U109A U116A | -5.71
47 | C3A C11G C56G C82U C115U G117A | -1.87
48 | C3U A100C G135C | -2.44
49 | C3A A75G A111G A118G U129C | -1.7
50 | C3A G52U G60U | -1.88
51 | C3A A26U | -4.19
52 | C3U C22A G36U G71C A84U C123A | -5.28
53 | C3G C4G G25U C28U C34U G71U G107U U112G C114A A121G | -6.59
54 | C3G U129C | -1.37
55 | C3A C88A | -2.21
56 | C3A C15G C72G G117C A119U | -0.76
57 | C3U C40U U78C G113A G120A C123A | -2.82
58 | C3U G17C C22A A29G G45A G69U C89U | -3.84
59 | C3A A43U G60C C82G | -5.1
60 | C3G U14A C20A G42U G61U G117A U131G G135C | -3.96
61 | C3A G44C U112G C124U U125C | -1.64
62 | C3U C12U G63A A66C U133A | -2.5
63 | C3G U7G G17C | -3.73

Row | Variant | polymerase ribozyme fitness (log ratio)
64 | C3A C73U C79G A119G C123A | 0.0633
65 | C3A U7A A121G | 1.21
66 | C3G C49U C72U U131A | -4.85
67 | C3U C56U | -0.891
68 | C3U C13A G69U A121G | 1.51
69 | C3G A18U A43U C114G | -4.61
70 | C3A C89A | -2.07
71 | C3U C12U G63A C89G | -3.24
72 | C3A U14G G69U C70U U106C | -4.86
73 | C3G G61A A90G C99U | -3.39
74 | C3U C124A | 1.2
75 | C3U C124G | 2.17
76 | C3A G10A G44U | -3.54
77 | C3U A27U | -4.17
78 | C3U A27G | -2.38
79 | C3U A91U C115U | -1.86
80 | C3U G17U | -3.11
81 | C3U G17A | -3.24
82 | C3A C8U A46U G63C U130C | -1.24
83 | C3A G39A C104U C115U | -2.58
